Measurements taken from article doi:10.1101/679134.
pKd: −log10 of the molar value.

System: CsrA-2 (rCsrA-2) (Coxiella burnetii)
Experiment: EMSA
Details: 30 min 37 C, pH not stated

Work on CbsR12 yielded a pKd of 6.89.
